The record followed here is patent US20150037339A1 (Regeneron, published 2015).

For test [1], the target named is T1, Activin A (homodimer of two inhibin βA subunits; R&D Systems, #338-AC) (human, UniProt P08476 311-426).
T1 construct: Bought protein; also called inhibin-βA dimer
T1 sequence: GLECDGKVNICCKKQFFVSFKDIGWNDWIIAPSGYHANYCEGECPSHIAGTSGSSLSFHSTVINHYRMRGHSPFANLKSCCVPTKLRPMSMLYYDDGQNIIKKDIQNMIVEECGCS
Kind of test: SPR blocking: 5 nM Activin A + 15 nM binder over hActRIIA-hFc surface. On the procedure: (§1) The binding signal (RU) was measured at 150 seconds after the start of the injection, and this signal was subtracted by the measured RU value for a negative control reference surface to determine the specific binding signal.

Test [2] has as its target T1, Activin A (homodimer of two inhibin βA …). Kind of test: SPR blocking: 5 nM Activin A + 30 nM binder over hActRIIA-hFc surface. How it is done:
as §1

The target is the same in test [3]. Kind of test: SPR blocking: 5 nM Activin A + 60 nM binder over hActRIIA-hFc surface. How it is done: as §1
For test [4] the target is unchanged. Nature of the test: SPR blocking: 5 nM Activin A + 0 nM binder over Follistatin-288 surface. How it is done: as §1
Test [5] has the same target. Kind of test: SPR blocking: 5 nM Activin A + 0.00 nM binder over hActRIIA-hFc surface. On the procedure:
as §1

Test [6] has the same target. Kind of test: SPR blocking: 5 nM Activin A + 0.94 nM binder over hActRIIA-hFc surface. How it is done:
as §1

Test [7] has the same target. Kind of test: SPR blocking: 5 nM Activin A + 1.88 nM binder over hActRIIA-hFc surface. On the procedure:
as §1

For test [8] the target is unchanged. Nature of the test: SPR blocking: 5 nM Activin A + 3.75 nM binder over hActRIIA-hFc surface. How it is done: as §1
Test [9] has the same target. Nature of the test: SPR blocking: 5 nM Activin A + 7.50 nM binder over hActRIIA-hFc surface. On the procedure: as §1
For test [10] the target is unchanged. Nature of the test: SPR blocking: 5 nM Activin A + 15 nM binder over Follistatin-288 surface. How it is done:
as §1

For test [11] the target is unchanged. Kind of test: SPR blocking: 5 nM Activin A + 30 nM binder over Follistatin-288 surface. On the procedure: as §1
Test [12] has the same target. Kind of test: SPR blocking: 5 nM Activin A + 60 nM binder over Follistatin-288 surface. On the procedure: as §1
The target is the same in test [13]. Kind of test: SPR blocking: 5 nM Activin A + 7.5 nM binder over Follistatin-288 surface. How it is done:
as §1

For test [14] the target is unchanged. Nature of the test: SPR blocking: 5 nM Activin A + 0.94 nM binder over Follistatin-288 surface. On the procedure:
as §1

The target is the same in test [15]. Kind of test: SPR blocking: 5 nM Activin A + 1.88 nM binder over Follistatin-288 surface. On the procedure:
as §1

For test [16] the target is unchanged. Nature of the test: SPR blocking: 5 nM Activin A + 3.75 nM binder over Follistatin-288 surface. How it is done: as §1
Test [17] has the same target. Nature of the test: SPR blocking: 5 nM Activin A + 15 nM binder over hActRIIB-hFc (Control 4) surface.
Test [18] has the same target. Kind of test: SPR blocking: 5 nM Activin A + 30 nM binder over hActRIIB-hFc (Control 4) surface. On the procedure:
as §1

For test [19] the target is unchanged. Nature of the test: SPR blocking: 5 nM Activin A + 60 nM binder over hActRIIB-hFc (Control 4) surface. On the procedure:
as §1

For test [20] the target is unchanged. Nature of the test: SPR blocking: 5 nM Activin A + 0.00 nM binder over hActRIIB-hFc (Control 4) surface. How it is done:
as §1

For test [21] the target is unchanged. Kind of test: SPR blocking: 5 nM Activin A + 0.94 nM binder over hActRIIB-hFc (Control 4) surface.
For test [22] the target is unchanged. Kind of test: SPR blocking: 5 nM Activin A + 1.88 nM binder over hActRIIB-hFc (Control 4) surface. On the procedure: as §1
Test [23] has the same target. Nature of the test: SPR blocking: 5 nM Activin A + 3.75 nM binder over hActRIIB-hFc (Control 4) surface. How it is done:
as §1

The target is the same in test [24]. Kind of test: SPR blocking: 5 nM Activin A + 7.50 nM binder over hActRIIB-hFc (Control 4) surface.
Another test addresses T2, Activin A (human, UniProt P08476 311-426).
T2 sequence: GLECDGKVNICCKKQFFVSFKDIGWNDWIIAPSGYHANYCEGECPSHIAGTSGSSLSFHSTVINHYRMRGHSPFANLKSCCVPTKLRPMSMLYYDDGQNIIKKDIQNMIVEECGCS
Nature of the test: cell-based or functional assay.

A further test has as its target T3, Activin B (human, UniProt P09529 293-407).
T3 chain: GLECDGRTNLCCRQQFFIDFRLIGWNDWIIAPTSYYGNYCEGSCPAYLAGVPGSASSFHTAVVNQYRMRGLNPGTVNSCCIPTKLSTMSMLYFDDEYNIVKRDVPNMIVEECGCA
Kind of test: cell-based or functional assay.

B1: H4H10440P2 (antibody, human IgG4, V domains shown)
VH: EVQLVESGGGVVQPGGSLRLSCAASTFTFDDFAMHWVRQAPGKGLEWVSLITGDGGSTYYADPVKGRFTISRDNSKNSLYLQMNSLRTEDTALYYCVKDWWIAARPDYYYYGMDVWGQGTTVTVSS
VL: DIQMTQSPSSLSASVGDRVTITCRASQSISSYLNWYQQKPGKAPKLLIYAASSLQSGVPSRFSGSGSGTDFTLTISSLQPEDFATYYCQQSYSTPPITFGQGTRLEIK
notes: H4H prefix means human IgG4 Fc
Regarding B1, the “% bound RU w/no inhibitor” value in test [1] was 4%; in test [2], 3%; in [3], 3%; in test [4], 100%; in test [5], 100%; in [6] it was 75%. Besides, the “% bound RU w/no inhibitor” value in test [7] was 52%; in test [8], 17%; in test [9] it was 6%; in [10] it was 2%; in test [11], 1%; in test [12] it was 0%. The “% bound RU w/no inhibitor” value in test [13] was 4%; in test [14], 76%; in [15] it was 57%; in [16] it was 17%; in test [17], 4%; in [18], 4%. Further, the “% bound RU w/no inhibitor” value was 4% in test [19]; 100% in [20]; 79% in test [21]; 58% in test [22]; 19% in test [23]; 7% in [24].

B2: H4H10423P (antibody, human IgG4, V domains shown)
VH: QVQLQQSGPGLLKPSQTLSLTCAISGDSVSSNSAAWSWIRQSPSRGLEWLGRTYYRANWFNDYALSVKSRITINPVTSTNHFSLQLHSVTPEDTAVYYCAREGALGYYFDSWGQGTLVTVSS
VL: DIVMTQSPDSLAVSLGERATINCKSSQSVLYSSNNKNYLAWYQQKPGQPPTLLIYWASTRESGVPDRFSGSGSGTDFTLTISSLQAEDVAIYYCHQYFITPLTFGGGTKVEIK
notes: as for B1
On to B2, for which the “% bound RU w/no inhibitor” value in test [1] amounted to 112%; in test [2], 114%; in test [3], 116%; in [4] it was 100%; in [5] it was 100%; in test [6] it was 112%. Also, the “% bound RU w/no inhibitor” value in test [7] was found to be 114%; in test [8], 111%; in test [9] it was 110%; in [10], 96%; in test [11], 94%; in test [12], 93%. Besides, the “% bound RU w/no inhibitor” value in test [13] was 97%; in [14], 120%; in test [15], 122%; in [16], 103%; in test [17], 42%; in [18], 41%. In addition, the “% bound RU w/no inhibitor” value in test [19] amounted to 41%; in test [20] it was 100%; in test [21], 93%; in test [22], 78%; in test [23], 47%; in [24], 42%.

B3: H4H10433P2 (antibody, human IgG4, V domains shown)
VH: EVQLVESGGGLVQAGRSLRLSCEASGFTFDDYGMHWVRQGPGKGLEWVSGISWNSGNIDYADSVKGRFTISRDNAKTSLYLQMNSLKTDDTALYFCAKDAVGFNWNYFLFDYWGQGTLVTVSS
VL: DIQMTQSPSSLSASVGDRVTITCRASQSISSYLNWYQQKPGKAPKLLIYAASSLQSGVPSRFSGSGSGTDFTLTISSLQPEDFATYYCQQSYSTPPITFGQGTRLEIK
With B3, the “IC50 [M], inhibition of 100 pM Activin A in A204/CAGAx12-Luc Smad2/3-luciferase bioassay” value with Activin A is 1.5e-10 M. Moreover, the “IC50 [M], inhibition of 50 pM Activin B in A204/CAGAx12-Luc Smad2/3-luciferase bioassay” value in the test with Activin B was determined as 1e-07 M.
